Reference: paper PMC11912573, “Dynamic Assembly of Pentamer-Based Protein Nanotubes” (ACS Nano, 2025)
Changes are numbered by the printed parent chain. In names and notes the source's numbering stands. Several values for one entry are separate records, joined by “and”; a condition that tells them apart may be missing. Identical values can stand only once.

What was measured:
[1] = target: the molecule itself; test: cryo-EM structure; cpAaLS(119, C37S, A85C) twisted tubes, helical reconstruction in three classes (0-, 18-, 28-Å gap); 50 mM Tris-HCl pH 8.5, 0.15 M NaCl, 1 mM TCEP
[2] = target: the molecule itself; test: cryo-EM 2D classification; cpAaLS(119) capsomers without NaCl at pH 8.5; Titan Krios; 3D reconstruction unsuccessful (preferential orientation)
[3] = target: the molecule itself; test: cryo-EM micrographs; Glacios microscope, micrographs of the assemblies; buffer of these samples not given

B1: cpAaLS(119, C37S, A85C) (enzyme, Aquifex aeolicus)
chain: TLEQAIERAGTKHGNKGWEAALSAIEMANLFKSLRGTGGSGSSMQIYEGKLTAEGLRFGIVASRFNHALVDRLVEGAIDSIVRHGGREEDITLVRVPGSWEIPVAAGELARKEDIDAVIAIGVLIRGCTPHFDYIASEVSKGLANLSLELRKPITFGVITAD
notes: Aquifex aeolicus lumazine synthase (AaLS), from the new N-terminus at residue 120 to the native C-terminus; octapeptide linker connecting the native C- and N-termini; Aquifex aeolicus lumazine synthase (AaLS), from the native N-terminus to the new C-terminus at residue 119, with C37S and A85C; Made from cpAaLS(119) by two rounds of site-directed mutagenesis; source: E. coli BL21-Gold(DE3), …
- binding result [1]: binds

B2: circularly permuted Aquifex aeolicus lumazine synthase cpAaLS(119) (enzyme)
chain: B1 chain with S80C, C128A
notes: Aquifex aeolicus lumazine synthase (AaLS), from the new N-terminus at residue 120 to the native C-terminus; includes the α-helix(120–131); octapeptide linker connecting the native C- and N-termini; Aquifex aeolicus lumazine synthase (AaLS), from the native N-terminus to the new C-terminus at residue 119; source: E. coli BL21-Gold(DE3), purified (heating at 70 °C, anion exchange, SEC)
- stoichiometry N [2]: 5 and 10

B3: circularly permuted Aquifex aeolicus lumazine synthase cpAaLS(84) (enzyme)
chain: ATPHFDYIASEVSKGLANLSLELRKPITFGVITADTLEQAIERAGTKHGNKGWEAALSAIEMANLFKSLRGTGGSGSSMQIYEGKLTAEGLRFGIVASRFNHALVDRLVEGAIDCIVRHGGREEDITLVRVPGSWEIPVAAGELARKEDIDAVIAIGVLIRG
notes: Aquifex aeolicus lumazine synthase (AaLS), from the new N-terminus at residue 85 to the native C-terminus; octapeptide linker connecting the native C- and N-termini; Aquifex aeolicus lumazine synthase (AaLS), from the native N-terminus to the new C-terminus at residue 84; source: E. coli BL21-Gold(DE3), purified (heating at 70 °C, anion exchange, SEC)
- binding result [3]: binds
